This is an account of results in publication doi:10.1101/2025.11.11.687766.

Assay [1] addresses Retron-Eco8 reverse transcriptase (RT) (Escherichia coli). The assay can be described thus: cryo-EM structure.
The target of assay [2] is Retron-Eco8 effector (OLD-family nuclease), untagged, of the Retron-Eco8^ATP construct (Escherichia coli). As to the kind of experiment: cryo-EM structure.

The stoichiometry N is the number of molecules, sites or subunits per partner or assembly.

Substance “Retron-Eco8 effector (OLD-family nuclease), untagged, of the Retron-Eco8^ATP construct (enzyme)” had a stoichiometry N (RT per effector (4:4)) in assay [1] of 1. In addition, the stoichiometry N in assay [2] amounted to 4.
